IC50 data for seven molecules are collected here from patent publication US20100323969 (published 2010).

Where two headings read alike, the source gives them in different places. Ends that are not written are not given here. * marks the point of attachment. Galloyl = O=C(c1cc(O)c(O)c(O)c1)*

Assay [1] addresses T1, human P-selectin IgG-Fc chimera (human, UniProt P16109).
T1 chain: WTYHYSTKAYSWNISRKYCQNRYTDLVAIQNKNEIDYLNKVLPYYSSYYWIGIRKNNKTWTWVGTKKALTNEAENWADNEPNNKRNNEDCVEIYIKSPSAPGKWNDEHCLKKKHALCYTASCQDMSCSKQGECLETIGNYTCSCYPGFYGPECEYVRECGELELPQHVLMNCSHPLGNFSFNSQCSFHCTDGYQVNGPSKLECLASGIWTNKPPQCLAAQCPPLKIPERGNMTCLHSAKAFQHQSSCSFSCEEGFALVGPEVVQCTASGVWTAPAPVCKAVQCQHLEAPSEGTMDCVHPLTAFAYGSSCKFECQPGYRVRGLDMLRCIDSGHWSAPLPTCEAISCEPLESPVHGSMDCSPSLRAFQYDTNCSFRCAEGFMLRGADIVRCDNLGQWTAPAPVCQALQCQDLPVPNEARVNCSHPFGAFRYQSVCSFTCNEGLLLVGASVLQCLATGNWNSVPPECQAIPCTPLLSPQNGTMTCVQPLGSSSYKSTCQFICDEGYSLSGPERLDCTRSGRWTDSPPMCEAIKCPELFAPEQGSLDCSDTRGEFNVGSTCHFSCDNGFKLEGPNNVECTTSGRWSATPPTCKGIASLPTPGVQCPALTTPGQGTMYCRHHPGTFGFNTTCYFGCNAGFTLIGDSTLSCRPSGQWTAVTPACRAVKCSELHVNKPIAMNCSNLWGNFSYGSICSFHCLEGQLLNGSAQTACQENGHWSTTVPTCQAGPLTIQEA
Nature of the assay: competition ELISA.

Assay [2] has as its target T1, human P-selectin IgG-Fc chimera. Nature of the assay: competition ELISA.

B1: A129 (peptide)
chain: DWVDV
What is called IC50 is the concentration at which inhibition is half-maximal. Consider B1, for which the IC50 in assay [1] was determined as 16 µM.

B2: Compound 13 (GA-EWVDV) (peptide)
chain: Galloyl-EWVDV
As to B2, the IC50 in assay [1] is 0.031 µM.

B3: Compound 12 (GA-WVDV) (peptide)
chain: Galloyl-WVDV
As to B3, the 50% inhibitory concentration (IC50) in assay [2] worked out at 0.0371 µM; in assay [1], 0.037 µM.

B4: TM11 (peptide)
chain: CDVEWVDVSSLEWDLPC
Consider B4, for which, in assay [1], the IC50 is 2 µM.

B5: A131 (peptide)
chain: AWVDV
B5 had an IC50 in assay [1] of 27 µM.

B6: A29 (peptide)
chain: EWVDV
B6 returned a concentration for half-maximal inhibition (IC50) in assay [1] of 8 µM.

B7: A130 (peptide)
chain: KWVDV
With B7, the IC50 in assay [1] was found to be 28 µM. Compared with the last molecule, the IC50 is about 3.5-fold higher.
